Measured values: patent US20070128190A1 (GLENMARK PHARMACEUTICALS S A, published 2007)
Where two headings read alike, the source gives them in different places.

Legend:
TMC-2206 [1] = target: T1, TMC-2206; test: fusion protein competing Eu-TMC-2206 off α2β1-coated plate
T1 construct: murine IgG1/κ secreted by hybridoma BHA2.1; labelled with Eu-N1-ITC where used as tracer; also called BHA2.1
Description: After incubating the sealed plates for 1 hr at 37° C. to allow binding to reach equilibrium, 2 μL samples were transferred from each well into a fresh well containing DELFIA Enhancement Solution (100 μL/well; Perkin-Elmer) for the measurement of free (unbound) label. Enhancement Solution (100 μL/well) was added to the emptied wells for the measurement of bound label. The plate was shaken (Titer Plate Shaker speed setting of 5 for 5 minutes at room temperature) and time-resolved fluorescent (TRF) intensities were read using a Victor2 multi-label plate reader (Perkin-Elmer Wallac, Boston, Mas.).
The fusion proteins were then expressed and purified as described above for the human GST-α2 I domain fusion protein. […] Therefore, these and the primate fusion proteins were further purified by size exclusion chromatography on a Sephadex 75 10/30 (GE-Amersham) column (primate) by FPLC on an Akta-Basic FPLC system (GE-Amersham) to yield a monomeric fraction. […] The Kᵢ assays were performed as described above in Example 2. […] Plates were sealed and coating occurred overnight at 4° C. The next morning, the plates were washed twice with TBS solution and then blocked using 200 μL of the blocking solution described above for 1 hour at room temperature with shaking. After blocking, the blocking solution was removed but the wells were not washed. […]

[2] = target: T2, Humanized TMC-2206 (hIgG4/κ VH12.0/VL10.0Q); test: fusion protein competing Eu-humanized TMC-2206 off α2β1-coated plates
T2 construct: labelled with Eu or Alexa-488 in some assays
T2 sequence (heavy, as listed by the source, chain 1 of 2): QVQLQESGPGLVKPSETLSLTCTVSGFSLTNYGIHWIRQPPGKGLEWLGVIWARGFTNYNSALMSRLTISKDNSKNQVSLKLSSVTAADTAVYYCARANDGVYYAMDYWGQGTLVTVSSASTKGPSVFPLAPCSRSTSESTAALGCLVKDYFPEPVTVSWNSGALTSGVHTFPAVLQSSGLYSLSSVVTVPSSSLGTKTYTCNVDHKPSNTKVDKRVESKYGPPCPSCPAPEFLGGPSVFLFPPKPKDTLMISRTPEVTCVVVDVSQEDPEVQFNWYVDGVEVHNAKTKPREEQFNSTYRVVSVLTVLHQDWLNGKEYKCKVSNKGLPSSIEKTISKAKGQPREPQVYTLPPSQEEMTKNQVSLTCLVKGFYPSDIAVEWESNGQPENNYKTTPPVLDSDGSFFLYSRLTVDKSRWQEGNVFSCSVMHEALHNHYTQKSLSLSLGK
T2 sequence (light, as listed by the source, chain 2 of 2): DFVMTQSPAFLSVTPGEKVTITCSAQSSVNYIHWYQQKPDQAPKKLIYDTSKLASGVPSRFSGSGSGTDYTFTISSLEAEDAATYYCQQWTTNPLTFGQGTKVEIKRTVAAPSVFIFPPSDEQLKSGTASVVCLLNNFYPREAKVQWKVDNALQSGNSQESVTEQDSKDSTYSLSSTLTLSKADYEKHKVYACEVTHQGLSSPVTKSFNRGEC
Excerpt: The inhibition curves were fitted with the “one site competition” model using Prism software (GraphPad, Inc.) to obtain IC₅₀ values and to calculate the Kᵢ using the equation of Cheng and Prusoff (1973) and the respective values for KD from above.
The cloning of the human, rhesus macaque, rat, and mouse α2 I domains were described in Example 12. Cynomolgus and additional rhesus monkey α2 I domains were cloned from cDNA derived from total RNA extracted from skin tissue (MediCorp, Inc., Montreal, QC).

TMC-2206 [3] = target: T1, TMC-2206; test: ELISA, GST fusion protein on immobilized TMC-2206
Description: The Kᵢ assays were performed as described above in Example 2. […] Plates were sealed and coating occurred overnight at 4° C. The next morning, the plates were washed twice with TBS solution and then blocked using 200 μL of the blocking solution described above for 1 hour at room temperature with shaking. After blocking, the blocking solution was removed but the wells were not washed. Instead, a serial dilution of GST fusion protein was made, added to the wells and then incubated for 2 hours at room temperature with shaking. The wells were then aspirated and a TBS washing buffer applied for 5 minutes at room temperature. The washing step was repeated twice more before the secondary antibody was applied. The secondary antibody step consisted of Amersham's HRP-conjugated rabbit anti-GST antibody diluted 1:2000 in blocking buffer. One hundred μL of secondary antibody was added to each well and incubated at room temperature for 1.5 hours with shaking. The wells were again aspirated and washed three times with wash buffer before adding the substrate reaction mixture. One hundred μL of substrate reaction mixture (1:1 dilution of TMB kit) was then added to each well for 6 minutes. […] The reaction within the wells was then read and quantified by spectrophotometric absorption using the Molecular Dynamics plate reader and associated Softmax software, respectively. […]

TMC-2206 [4] = target: T1, TMC-2206; test: fusion protein competing Eu-TMC-2206 off α2β1-coated plate; remark: listed apart in the source
Description: Wells in a 96 well microtiter plate were coated with platelet α2β1-integrin (custom-coated with human platelet α2β1 by GTI Inc., Wis.) and then blocked with nonfat milk. […] After concentration in prewashed MicroSep concentrators (30-kDa cutoff; Pall Life Sciences at 9500 rpm (7000×g) in a JA-20 rotor (Beckman Instruments, Inc.) for 20 minutes at 4° C.), antibodies were adjusted to 4.0 mg/mL with PBS containing a final concentration of 100 mM NaHCO₃, pH 9.3. The mAb/bicarbonate mixture (0.250 mL) was gently mixed into a vial containing 0.2 mg N¹-(p-isothiocyanatobenzyl)-diethylenetriamine-N¹,N²,N³N³-tetraacetic acid chelated with Eu³⁺ (Eu-N1-ITC; Perkin Elmer Life Sciences) and reacted overnight at 4° C. without stirring. Each labeled antibody mixture was applied to a separate PD-10 column (GE Biosciences, Piscataway, N.J.) pre-equilibrated with Running Buffer (50 mM Tris, pH 7.4 and 138 mM NaCl). Fractions (0.5 mL) were collected and assayed for total protein (Bradford reagent; Bio-Rad Laboratories, Hercules, Calif.) using a SpectraMax 384 absorbance plate reader and for europium after 1:10.000 dilution in DELFIA Enhancement Solution (Perkin-Elmer) by time-resolved fluorescence (TRF) using a Victor2 multi-label plate reader (Perkin Elmer). The fractions that were positive for both protein and Eu label were pooled and applied to new PD-10 columns and samples collected and assayed for total protein and for europium content by TRF calibrated against a europium standard solution (Perkin-Elmer) to calculate the fluor: protein ratio.

TMC-2206 [5] = target: T1, TMC-2206; test: as above; remark: listed apart in the source

Binder | Ki (TMC-2206 [1]) | Ki [2] | further results
GST-rhesus α2 I domain fusion protein (other, also called rhesus GST-α2 I; not shown: glutathione S-transferase tag encoded by vector pGEX-2TK) SPDFQLSASFSPATQPCPSLIDVVVVCDESNSIYPWDAVKNFLEKFVQGLDIGPTKTQVGLIQYANNPRVVFNLNTYKTKEEMIVATSQTSQYGGDLTNTFGAIQYARKYAYSAASGGRRSATKVMVVVTDGESHDGSMLKAVIDQCNHDNILRFGIAVLGYLNRNALDTKNLIKEIKAIASIPTERYFFNVSDEAALLEKAGTLGEQIFSIEGTV | 4400 pM | 400 pM | 
GST-cynomolgus α2 I domain fusion protein of Example 12 (aspartic acid at position 40) (other, also called cynomolgus monkey GST-α2 I; polymorphic cynomolgus I domain; not shown: glutathione S-transferase tag encoded by vector pGEX-2TK) SPDFQLSASFSPATQPCPSLIDVVVVCDESNSIYPWDAVDNFLEKFVQGLDIGPTKTQVGLIQYANNPRVVFNLNTYKTKEEMIVATSQTSQYGGDLTNTFGAIQYARKYAYSAASGGRRSATKVMVVVTDGESHDGSMLKAVIDQCNHDNILRFGIAVLGYLNRNALDTKNLIKEIKAIASIPTERYFFNVSDEAALLEKAGTLGEQIFSIEGTV |  |  | binding result (TMC-2206 [3]): no binding (tested: 40 nM)
GST-human α2 I domain fusion protein (other, the reverse primer ends at ...SIEGTV; also called GST-α2 I domain; hα2I; not shown: glutathione S-transferase tag encoded by vector pGEX-2TK) GSSPDFQLSASFSPATQPCPSLIDVVVVCDESNSIYPWDAVKNFLEKFVQGLDIGPTKTQVGLIQYANNPRVVFNLNTYKTKEEMIVATSQTSQYGGDLTNTFGAIQYARKYAYSAASGGRRSATKVMVVVTDGESHDGSMLKAVIDQCNHDNILRFGIAVLGYLNRNALDTKNLIKEIKAIASIPTERYFFNVSDEAALLEKAGTLGEQIFSIEGTVEFIVTD | 330 pM | 570 pM | Ki (TMC-2206 [4]): 180 pM; Ki (TMC-2206 [5]): 280 pM
GST-mouse α2 I domain fusion protein (other, also called murine α2 I-GST fusion protein; not shown: glutathione S-transferase tag encoded by vector pGEX-2TK) SPDFQFLTSFSPAVQACPSLVDVVVVCDESNSIYPWEAVKNFLVKFVTGLDIGPKKTQVALIQYANEPRIIFNLNDFETKEDMVQATSETRQHGGDLTNTFRAIEFARDYAYSQTSGGRPGATKVMVVVTDGESHDGSKLKTVIQQCNDDEILRFGIAVLGYLNRNALDTKNLIKEIKAIASTPTERYFFNVSDEAALLEKAGTLGEQIFSIEGTVQGGDNFQMEMSQ |  |  | fold shift in affinity (TMC-2206 [3]): > 1500 fold
